Changes are numbered by the printed parent chain.
Tests used:
[1] = target: T1, PNPase delta-KH delta-S1 (UniProt P05055); assay: EMSA; conditions: EMSA: 20 mM Tris pH 7.5, 100 mM NaCl, 1 mM MgCl2, 1 mM DTT, 30 C, 0.2 uM RNA; BLI: same buffer + 1 mg/mL acetylated BSA; ITC: 20 mM Tris-HCl pH 7.5, 1 mM …
T1 sequence: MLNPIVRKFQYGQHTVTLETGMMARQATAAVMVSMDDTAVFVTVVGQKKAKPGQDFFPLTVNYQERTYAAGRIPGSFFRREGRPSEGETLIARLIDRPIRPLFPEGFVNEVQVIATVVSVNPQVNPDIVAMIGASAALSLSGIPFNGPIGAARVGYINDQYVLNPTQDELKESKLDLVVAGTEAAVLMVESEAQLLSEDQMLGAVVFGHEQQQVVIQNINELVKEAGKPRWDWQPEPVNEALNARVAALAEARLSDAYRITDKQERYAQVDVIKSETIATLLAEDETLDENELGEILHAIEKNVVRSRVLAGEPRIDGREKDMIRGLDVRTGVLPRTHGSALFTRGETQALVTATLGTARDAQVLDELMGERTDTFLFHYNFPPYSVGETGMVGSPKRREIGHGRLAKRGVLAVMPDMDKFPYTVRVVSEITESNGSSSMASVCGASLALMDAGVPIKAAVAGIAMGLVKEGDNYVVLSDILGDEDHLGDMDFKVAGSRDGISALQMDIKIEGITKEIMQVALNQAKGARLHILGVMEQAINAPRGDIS

[2] = target: T2, PNPase (UniProt P05055); assay: EMSA; conditions: EMSA: 20 mM Tris pH 7.5, 100 mM NaCl, 1 mM MgCl2, 1 mM DTT, 30 C, 0.2 uM RNA; BLI: same buffer + 1 mg/mL acetylated BSA; ITC: 20 mM Tris-HCl pH 7.5, 1 mM …
T2 sequence: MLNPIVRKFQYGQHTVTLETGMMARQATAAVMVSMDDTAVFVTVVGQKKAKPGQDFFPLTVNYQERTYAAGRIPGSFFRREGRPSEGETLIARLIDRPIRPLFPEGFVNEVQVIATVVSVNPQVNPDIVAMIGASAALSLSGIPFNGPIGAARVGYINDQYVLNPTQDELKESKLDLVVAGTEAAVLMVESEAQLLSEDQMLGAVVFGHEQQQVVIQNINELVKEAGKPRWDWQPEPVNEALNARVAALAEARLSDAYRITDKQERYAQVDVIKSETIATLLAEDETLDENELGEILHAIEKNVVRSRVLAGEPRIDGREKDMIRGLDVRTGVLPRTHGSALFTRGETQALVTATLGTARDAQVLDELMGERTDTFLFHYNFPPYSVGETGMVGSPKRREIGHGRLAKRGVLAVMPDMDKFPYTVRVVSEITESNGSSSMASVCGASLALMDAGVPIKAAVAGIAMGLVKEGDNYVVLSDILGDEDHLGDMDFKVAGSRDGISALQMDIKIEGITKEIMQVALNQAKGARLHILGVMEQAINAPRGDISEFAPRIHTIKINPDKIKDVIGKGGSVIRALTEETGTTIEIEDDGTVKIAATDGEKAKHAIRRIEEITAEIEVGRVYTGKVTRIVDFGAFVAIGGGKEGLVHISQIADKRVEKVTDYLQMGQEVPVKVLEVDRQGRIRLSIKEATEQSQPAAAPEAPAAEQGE

[3] = target: Hfq (UniProt P0A6X3); assay: EMSA; conditions: EMSA: 20 mM Tris pH 7.5, 100 mM NaCl, 1 mM MgCl2, 1 mM DTT, 30 C, 0.2 uM RNA; BLI: same buffer + 1 mg/mL acetylated BSA; ITC: 20 mM Tris-HCl pH 7.5, 1 mM …
Hfq, sequence (P0A6X3 whole entry): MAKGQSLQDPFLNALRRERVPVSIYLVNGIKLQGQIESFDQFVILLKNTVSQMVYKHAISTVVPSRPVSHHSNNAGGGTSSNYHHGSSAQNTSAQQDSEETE

[4] = target: PNPase;Hfq (Escherichia coli K-12 MG1655 derivative?;Escherichia coli?) (UniProt P05055+P0A6X3); assay: EMSA; conditions: EMSA: 20 mM Tris pH 7.5, 100 mM NaCl, 1 mM MgCl2, 1 mM DTT, 30 C, 0.2 uM RNA; BLI: same buffer + 1 mg/mL acetylated BSA; ITC: 20 mM Tris-HCl pH 7.5, 1 mM …
PNPase;Hfq (Escherichia coli K-12 MG1655 derivative?;Escherichia coli?), sequence (P0A6X3 whole entry, one chain of several): as the sequence (P0A6X3 whole entry) above

[5] = target: T3, PNPase delta-S1 (UniProt P05055); assay: EMSA; conditions: EMSA: 20 mM Tris pH 7.5, 100 mM NaCl, 1 mM MgCl2, 1 mM DTT, 30 C, 0.2 uM RNA; BLI: same buffer + 1 mg/mL acetylated BSA; ITC: 20 mM Tris-HCl pH 7.5, 1 mM …
T3 sequence: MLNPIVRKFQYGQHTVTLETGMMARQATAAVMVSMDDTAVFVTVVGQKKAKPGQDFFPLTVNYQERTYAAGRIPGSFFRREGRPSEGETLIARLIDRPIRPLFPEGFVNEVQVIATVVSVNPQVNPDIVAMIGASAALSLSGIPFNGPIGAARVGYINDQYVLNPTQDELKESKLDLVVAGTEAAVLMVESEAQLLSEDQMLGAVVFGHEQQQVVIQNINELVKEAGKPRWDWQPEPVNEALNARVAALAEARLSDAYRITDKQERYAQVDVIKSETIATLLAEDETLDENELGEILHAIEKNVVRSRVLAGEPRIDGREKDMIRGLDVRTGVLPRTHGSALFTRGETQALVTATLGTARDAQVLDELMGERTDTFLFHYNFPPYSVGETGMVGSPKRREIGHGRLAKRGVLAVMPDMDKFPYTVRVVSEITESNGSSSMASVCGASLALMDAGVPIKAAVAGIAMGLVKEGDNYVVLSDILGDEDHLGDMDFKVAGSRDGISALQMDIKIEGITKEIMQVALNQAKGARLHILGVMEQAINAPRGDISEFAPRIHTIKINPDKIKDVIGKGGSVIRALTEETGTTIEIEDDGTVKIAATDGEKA

[6] = target: T4, PNPase S437-9A (active site mutant) S437A;S438A;S439A (UniProt P05055); assay: EMSA; conditions: EMSA: 20 mM Tris pH 7.5, 100 mM NaCl, 1 mM MgCl2, 1 mM DTT, 30 C, 0.2 uM RNA; BLI: same buffer + 1 mg/mL acetylated BSA; ITC: 20 mM Tris-HCl pH 7.5, 1 mM …
T4 sequence: T2 sequence with S437A, S438A, S439A

[7] = test system: PNPase; assay: ITC; conditions: no phosphate, 1 mM Mg2+, 30 C, N = 1.01, EMSA: 20 mM Tris pH 7.5, 100 mM NaCl, 1 mM MgCl2, 1 mM DTT, 0.2 uM RNA, BLI: same buffer + 1 mg/mL acetylated …, ITC: 20 mM Tris-HCl pH 7.5, 1 mM MgCl2
[8] = target: T2, PNPase; assay: BLI; conditions: EMSA: 20 mM Tris pH 7.5, 100 mM NaCl, 1 mM MgCl2, 1 mM DTT, 30 C, 0.2 uM RNA; BLI: same buffer + 1 mg/mL acetylated BSA; ITC: 20 mM Tris-HCl pH 7.5, 1 mM …
[9] = target: T4, PNPase S437-9A (active site mutant) S437A;S438A;S439A; assay: BLI; conditions: EMSA: 20 mM Tris pH 7.5, 100 mM NaCl, 1 mM MgCl2, 1 mM DTT, 30 C, 0.2 uM RNA; BLI: same buffer + 1 mg/mL acetylated BSA; ITC: 20 mM Tris-HCl pH 7.5, 1 mM …
[10] = target: T2, PNPase; assay: ITC; conditions: EMSA: 20 mM Tris pH 7.5, 100 mM NaCl, 1 mM MgCl2, 1 mM DTT, 30 C, 0.2 uM RNA; BLI: same buffer + 1 mg/mL acetylated BSA; ITC: 20 mM Tris-HCl pH 7.5, 1 mM …
[11] = test system: PNPase; assay: BLI; conditions: EMSA: 20 mM Tris pH 7.5, 100 mM NaCl, 1 mM MgCl2, 1 mM DTT, 30 C, 0.2 uM RNA; BLI: same buffer + 1 mg/mL acetylated BSA; ITC: 20 mM Tris-HCl pH 7.5, 1 mM …
[12] = test system: PNPase S437-9A (active site mutant); assay: BLI; conditions: EMSA: 20 mM Tris pH 7.5, 100 mM NaCl, 1 mM MgCl2, 1 mM DTT, 30 C, 0.2 uM RNA; BLI: same buffer + 1 mg/mL acetylated BSA; ITC: 20 mM Tris-HCl pH 7.5, 1 mM …

Question: How did the binding [1] turn out when “GCGAUCAGGAAGACCCUCGCGGAGAACCUGAAAGCACGACAUUGCUCACAUUGCUUCCAGUAUUACUUAGCCAGCCGGGUGCUGGCUUUUUUUUU [RyhB (9U)]” was run?
Answer: Its binding is “binds more weakly”.

Question: And the binding [2]?
Answer: Its binding is “binds”.

Question: And the binding [3]?
Answer: The binding was “binds”.

Question: And the binding [4]?
Answer: Its binding is “binds”.

Question: What about the binding [5] of the same substance?
Answer: Its binding is “binds more weakly”.

Question: What about the binding [6] of the same substance?
Answer: Its binding is “binds more weakly”.

Question: Which Kd [7] does the source give for RyhB (4U) here?
Answer: Its Kd is 85 nM.

Question: With “GCGAUCAGGAAGACCCUCGCGGAGAACCUGAAAGCACGACAUUGCUCACAUUGCUUCCAGUAUUACUUAGCCAGCCGGGUGCUGGCUUUUUUUUU [5'-biotin RyhB (9U)]” as the substance, how does the Kd [8] read?
Answer: Its Kd is 15.8 nM.

Question: And the Kd [9]?
Answer: The Kd was 149 nM.

Question: How did the Kd [10] turn out when “GCGAUCAGGAAGACCCUCGCGGAGAACCUGAAAGCACGACAUUGCUCACAUUGCUUCCAGUAUUACUUAGCCAGCCGGGUGCUGGCUUUU [RyhB (4U)]” was run?
Answer: Its Kd is 85 nM.

Question: “GCUGAAAAACAUAACCCAUAAAAUGCUAGCUGUACCAGGAACCACCUCCUUAGCCUGUGUAAUCUCCCUUACACGGGCUUAUUUUUU [CyaR]” was tested. Which binding [2] did it give?
Answer: The binding was “binds”.

Question: What about the binding [3] of the same substance?
Answer: Its binding is “binds”.

Question: And the binding [4]?
Answer: Its binding is “binds”.

Question: What about the binding [5] of the same substance?
Answer: Its binding is “binds more weakly”.

Question: And the binding [6]?
Answer: The binding was “binds more weakly”.

Question: Which results are given for 5'-biotin RyhB (9U)?
Answer: Kd [11]: 15.8 nM; Kd [12]: 149 nM

— paper PMC4748814
